According to the DeepSol protein solubility set:

Experiment: soluble on expression in E. coli; label from the status in PepcDB or PDB records

Row | Sequence | soluble on expression in E. coli
1 | MGSDKIHHHHHHMTAQSSHMLVLQSTVTSAFKTIASEKQGLEALEEALLGYLSSAFQAAVQTIRNANGHVVITGLGKSGHIGAKIAATLASTGTPAFFVHAAEANHGDLGMIGSDDVILALSWSGETSELSGIINHAARFRTPLIAMTSGEHSVLGRQADIVLLLPKIEEACPHGLAPTTSTIMQLAMGDALAVALLEMRGFTATDFKIYHPGGSLGASLKYVRDIMHQGESIPLVAQGTAMAKAMSVLVEKHFGCVGVVNQEGELIGIVTDGDLARNIHVNLSKFNVDELMTKDPKIVEPNTLVGAATAFINEHHIGAFFVVENKKPIGIVHFHDLLRIGAA | not soluble
2 | MTPTTTPVSNPDALSTGTQDVHTLKGTLQRLAPGTPLRDGLDRIVRGHTGALIVIGDDENVSSICDGGFEFDVSFAATRLRELCKMDGAVILSSDLERIKRANVQLLPSPTWPTQESGTRHRSAERTALHTGVPVIAVSESQNTITLYVEGKSHMLEQPAALLNRANQALGTMERYRDRLDQVNNRLHLAELHSYVTVIDVVSVIQREEMLRRVGEIIDGDVLELGKDAKEIQIQLSELRGDNDRERESIIADYLVTDGIPADEEIHAALEAISHLDDKALLNPANIARVLGLPPTEEALDEPVTPRGYRTLNRIPRVQKFLMDKLIVEFGNLDALLNASVEDLSAVDGVGSLWARHITDGLGRLS | not soluble
3 | MSLTESFSTPKFHISPTGMIMEGAQLHIKCTIQVTHLAQEFPEIIIQKDKAIVAHNRHGNKAVYSVMAMVEHSGNYTCKVESSRISKVSSIVVNITELFSKPELESSFTHLDQGERLNLSCSIPGAPPANFTIQKEDTIVSQTQDFTKIASKSDSGTYICTAGIDKVVKKSNTVQIVVCEMLSQPRISYDAQFEVIKGQTIEVRCESISGTLPISYQLLKTSKVLENSTKNSNDPAVFKDNPTEDVEYQCVADNCHSHAKMLSEVLRVKVIAPVDEVQISILSSKVVESGEDIVLQCAVNEGSGPITYKFYREKEGKPFYQMTSNATQAFWTKQKASKEQEGEYYCTAFNRANHASSVPRSKILTVRVIEGHHHHHH | not soluble
4 | IQQFNYGVRLVMSDNMQKILEYPNKTLSLGEKYYTGKTIGEIWGYKTIGIAQTQEEMDKHLANGGKPNWGSAWGAGDIMYANIDGKDGVNSGANTVNDHGDLKIIGNSTPRYNFGLTLDGSWKGLDFSLFIQGVMKRDYMLDGPYFWGANGGMWQSCVFKEHLDYWRPEGDPLGANTNAYYPKPYFSSNKNQKTQSGYLQNAAYCRLKNAQIGYTLPKAWTKKAAMESVRVYVSGDNLLTISGISDIFDPETLGGDWGPGKLYPLQRTISIGLNVNF | not soluble
5 | MNNELPDDIELLKAMLRKQQSRLRQYACQVAGYEQEIERLKAQLDRLRRMLFGQSSEKKRHKLENQIRQAEKRLSELENRLNTARNLLEDASSVTDSPDTSPPSENPIASKPESPGRKSSRKPLPAELPRETHRLLPAETSCPACGGVLKEMGETISEQLDIINTAFKVIETIRPKLACSRCDVIGTTSS | not soluble
6 | MGSDKIHHHHHHMLINADFSCRAALAPEHYQWVQSPQNGVERVMLDRVGAEKARATSIVRYAPESNFPYHLHPGGEEILVLSGTFSADNSDYPAGWYLRNPPKSGHQPYSNVGAVIFVKLWQMTADETHHVAIDTKDAKNWHRQGNREVCHLFLDTSEQVSLQRIEAGEILFPETIARGAELLVIEGELIEDSMLDKGQSYKKGSWIRLPVDATSPIVAGANGATVYLKTGHLSRIIGIDVY | not soluble
7 | MTSTPEFLKQLDYEQLKYCRELCDNRIRAIEAEEKKMAWAVTDGGINYGWFRTEDYMKAVECLVATAAERWEESDKADPSGRGWLDLSIRGSRLPVSEYEALFADGQWG | not soluble
8 | MQCSRALALRLILIAPNGTSVKTLLRPRLDESWEQFVRRRLATPIRRQRIACDRTQKEVADIVGVSHHSIQRWELAYVRSRPIAHIVWAQAHDFLLGLELIHALGRTPRRVSRAHHVHSGR | not soluble
